Measured values taken from article PMC8740826 (Protein Science : A Publication of the Protein Society, 2021).
Where two headings read alike, the source gives them in different places.

B1: β-amylase from sweet potato (enzyme)
chain: APIPGVMPIGNYVSLYVMLPLGVVNADNVFPDKEKVEDELKQVKAGGCDGVMVDVWWGIIEAKGPKQYDWSAYRELFQLVKKCGLKIQAIMSFHQCGGNVGDAVFIPIPQWILQIGDKNPDIFYTNRAGNRNQEYLSLGVDNQRLFQGRTALEMYRDFMESFRDNMADFLKAGDIVDIEVGCGAAGELRYPSYPETQGWVFPGIGEFQCYDKYMVADWKEAVKQAGNADWEMPGKGAGTYNDTPDKTEFFRPNGTYKTDMGKFFLTWYSNKLIIHGDQVLEEANKVFVGLRVNIAAKVSGIHWWYNHVSHAAELTAGFYNVAGRDGYRPIARMLARHHATLNFTCLEMRDSEQPAEAKSAPQELVQQVLSSGWKEYIDVAGENALPRYDATAYNQMLLNVRPNGVNLNGPPKLKMSGLTYLRLSDDLLQTDNFELFKKFVKKMHADLDPSPNAISPAVLERSNSAITIDELMEATKGSRPFPWYDVTDMPVDGSNPFD
B2: glucose isomerase from Streptomyces rubiginosus (enzyme)
chain: not shown

What was measured:
SEC-SAXS [1] = biological target: the molecule itself; assay: SEC-SAXS
SEC-SAXS [2] = biological target: the molecule itself; assay: SEC-SAXS; remark: listed apart in the source

Protein	stoichiometry N (SEC-SAXS [1])	stoichiometry N (SEC-SAXS [2])
B1	4	–
B2	–	4
